The results in this text go back to patent publication US20210355194A1 (TWIST BIOSCIENCE, published 2021).

As a reminder, the Kd is the constant that tells how readily two partners part at equilibrium. The koff is a measure of how fast the partners let go of each other. For orientation: kon means the second-order rate constant of association. A high value points to faster complex formation.

Where two headings read alike, the source gives them in different places.

Assay [1] deals with T1, Acro SARS-CoV-2 (COVID-19) S1 protein (SARS-CoV-2, UniProt P0DTC2 16-685).
T1 construct: also called SARS-CoV-2 S1
Briefly: SPR. (In general: SPR reads the build-up and loss of mass on a sensor chip optically.)

For assay [2], the target named is T2, ACE2 (human, UniProt Q9BYF1 18-740).
T2 sequence (Q9BYF1 18-740 limits assumed): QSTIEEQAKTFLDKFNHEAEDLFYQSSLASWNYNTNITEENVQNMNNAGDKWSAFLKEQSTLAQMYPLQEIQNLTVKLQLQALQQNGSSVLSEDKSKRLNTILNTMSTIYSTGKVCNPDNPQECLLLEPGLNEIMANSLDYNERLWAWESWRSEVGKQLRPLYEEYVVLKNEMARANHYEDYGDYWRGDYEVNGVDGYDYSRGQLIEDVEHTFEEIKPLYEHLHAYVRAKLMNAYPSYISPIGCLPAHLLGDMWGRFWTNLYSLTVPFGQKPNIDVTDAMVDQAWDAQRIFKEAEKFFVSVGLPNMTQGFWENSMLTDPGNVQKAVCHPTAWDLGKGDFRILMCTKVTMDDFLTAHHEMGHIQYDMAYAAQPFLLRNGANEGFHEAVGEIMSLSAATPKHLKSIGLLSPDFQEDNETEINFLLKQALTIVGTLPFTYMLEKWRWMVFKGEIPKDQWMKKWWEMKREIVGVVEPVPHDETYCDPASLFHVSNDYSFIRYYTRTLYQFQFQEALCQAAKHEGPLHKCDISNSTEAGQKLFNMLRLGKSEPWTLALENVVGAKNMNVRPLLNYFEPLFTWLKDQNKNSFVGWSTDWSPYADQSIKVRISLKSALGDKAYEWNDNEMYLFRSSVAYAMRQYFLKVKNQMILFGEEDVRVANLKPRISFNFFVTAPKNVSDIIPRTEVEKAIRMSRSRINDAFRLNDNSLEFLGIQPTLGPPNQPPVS
Assay [3] addresses T2, ACE2. This is another data set of the same source.
For assay [4], the target named is SARS-CoV-2 membrane protein on expressing cells (SARS-CoV-2, UniProt P0DTC5 1-222).

B1: variant 6-3 (Fc fusion)
VHH: EVQLVESGGGLVQPGGSLRLSCAASGFTFSPSWMGWFRQAPGKEREFVATINEYGGRNYADSVKGRFTISADNSKNTAYLQMNSLKPEDTAVYYCARVDRDFDYWGQGTLVTVSS
Regarding B1, in assay [1], the Kd came out at 12.4 nM.

B2: variant 6-5 (Fc fusion)
VHH: EVQLVESGGGLVQPGGSLRLSCAASGRTFTMGWFRQAPGKEREFVASTNSAGSTNYADSVNGRFTISADNSKNTAYLQMNSLKPEDTAVYYCTTVDQYFDYWGQGTLVTVSS
In turn, B2 registered a dissociation constant Kd in assay [1] of 24.9 nM. Against the preceding molecule, the Kd is about 2-fold higher.

B3: variant 6-9 (Fc fusion)
VHH: EVQLVESGGGLVQPGGSLRLSCAASGFTFDYYAMGWFRQAPGKEREFVSAIDSEGRTSYADSVKGRFTISADNSKNTAYLQMNSLKPEDTAVYYCARWGPFDIWGQGTLVTVSS
For B3, in assay [1], binding was characterised by a dissociation constant (Kd) of 18.5 nM.

B4: variant 6-52 (Fc fusion)
VHH: EVQLVESGGGLVQPGGSLRLSCAASGDTYGSYWMGWFRQAPGKEREVVAAITSGGSTVYADSVKGRFTISADNSKNTAYLQMNSLKPEDTAVYYCARVDSRFDYWGQGTLVTVSS
In assay [1], B4 yielded a Kd of 31.2 nM.

B5: variant 6-81 (Fc fusion)
VHH: EVQLVESGGGLVQPGGSLRLSCAASGFIGNYHAMGWFRQAPGKEREFVAAVTWSGGTTNYADSVKGRFTISADNSKNTAYLQMNSLKPEDTAVYYCAREGYYYDSSGYPYYFDYWGQGTLVTVSS
B5 came in with a Kd in assay [1] of 12.9 nM.

B6: ACE2 variant antibody 4-76 (VHH)
VHH: EVQLVESGGGLVQPGGSLRLSCAASGRTFGDYAMGWFRQAPGKERELVAPINWSGGSTYYADSVKGRFTISADNSKNTAYLQMNSLKPEDTAVYYCATDPPLFWGQGTLVTVSS
On to B6, for which, in the assay with ACE2 [2], the off-rate (koff) came to 0.00428 s⁻¹ and the kon is 135000 M⁻¹ s⁻¹. In the assay with ACE2 [3], this molecule returned a Kd of 31.8 nM, a koff of 0.00428 s⁻¹ and a kon of 135000 M⁻¹ s⁻¹.

B7: ACE2 variant antibody 4-82 (VHH)
VHH: EVQLVESGGGLVQPGGSLRLSCAASGRTFGDYAMGWFRQAPGKEREFVAAINWSGGYTRYADSVKGRFTISADNSKNTAYLQMNSLKPEDTAVYYCATDPPLFWGQGTLVTVSS
With B7, in the assay with ACE2 [2], the koff was found to be 0.00333 s⁻¹ and the kon was 301000 M⁻¹ s⁻¹. In the assay with ACE2 [3], this molecule gave a Kd of 11.1 nM, a koff of 0.00333 s⁻¹ and a kon of 301000 M⁻¹ s⁻¹.

B8: ACE2 variant antibody 4-78 (VHH)
VHH: EVQLVESGGGLVQPGGSLRLSCAASGRTFSDDTMGWFRQAPGKEREFVAGMTWSGSSTFYADSVKGRFTISADNSKNTAYLQMNSLKPEDTAVYYCATDPPLFWGQGTLVTVSS
For the molecule B8, in the assay with ACE2 [2], the koff was found to be 0.00263 s⁻¹ and the kon came to 247000 M⁻¹ s⁻¹. In addition, in the assay with ACE2 [3], the affinity, expressed as Kd, was 10.7 nM; the koff is 0.00263 s⁻¹; the kon was 247000 M⁻¹ s⁻¹.

B9: variant 6-37 (Fc fusion)
VHH: EVQLVESGGGLVQPGGSLRLSCAASGHTFSTSWMGWFRQAPGKEREFVATINSLGGTNYADSVKGRFTISADNSKNTAYLQMNSLKPEDTAVYYCARVSSGDYGMDVWGQGTLVTVSS
On to B9, for which the Kd in assay [1] was 22.5 nM. This lies in the double-digit nanomolar range.

B10: variant 6-46 (Fc fusion)
VHH: EVQLVESGGGLVQPGGSLRLSCAASGLTFSAMGWFRQAPGKEREFVALIRRDGSTIYADSVKGRFTISADNSKNTAYLQMNSLKPEDTAVYYCAALGILFGYDAFDIWGQGTLVTVSS
B10 registered a Kd in assay [1] of 18.1 nM.

B11: 10-13 (VHH)
VHH: EVQLVESGGGLVQPGGSLRLSCAASGGLTFSSNTMGWFRQAPGKEREFVASISSSGRTSYADSVKGRFTISADNSKNTAYLQMNSLKPEDTAVYYCARRVRRLWFRSYFDLWGQGTLVTVSS
B11: in assay [4], the “MFI Ratio” value was 8.83.

B12: ACE2 variant antibody 3-12 (antibody, V domains shown)
VH: EVQLLESGGGLVQPGGSLRLSCAASGFTFRSHAMNWVRQAPGKGLEWVSAISGSGGSTNYADSVKGRFTISRDNSKNTLYLQMNSLRAEDTAVYYCARGLKFLEWLPSAFDIWGQGTLVTVSS
VL: DIQMTQSPSSLSASVGDRVTITCRTSQSINTYLNWYQQKPGKAPKLLIYGASNVQSGVPSRFSGSGSGTDFTLTISSLQPEDFATYYCQQSYRIPRTFGQGTKVEIK
Take B12: in the assay with ACE2 [2], the koff came to 0.00649 s⁻¹ and the kon came out at 15500 M⁻¹ s⁻¹. In the assay with ACE2 [3], this molecule yielded a Kd of 420 nM, a koff of 0.00649 s⁻¹ and a kon of 15500 M⁻¹ s⁻¹.

B13: ACE2 variant antibody 3-8 (antibody, V domains shown)
VH: EVQLLESGGGLVQPGGSLRLSCAASGFTFRSHAMSWVRQAPGKGLEWVSSISGGGASTYYADSVKGRFTISRDNSKNTLYLQMNSLRAEDTAVYYCARVKYLTTSSGWPRPYFDNWGQGTLVTVSS
VL: DIQMTQSPSSLSASVGDRVTITCRASQSIGKYLNWYQQKPGKAPKLLIYASSTLQRGVPSRFSGSGSGTDFTLTISSLQPEDFATYYCQQSLSTPFTFGQGTKVEIK
Regarding B13, in the assay with ACE2 [2], the koff is 0.00509 s⁻¹ and the kon amounted to 114000 M⁻¹ s⁻¹. In the assay with ACE2 [3], the Kd was 44.6 nM, the koff was found to be 0.00509 s⁻¹ and the kon was 114000 M⁻¹ s⁻¹.

B14: ACE2 variant antibody 3-13 (antibody, V domains shown)
VH: EVQLLESGGGLVQPGGSLRLSCAASGFTITNYAMSWVRQAPGKGLEWVSGISGSGAGTYYADSVKGRFTISRDNSKNTLYLQMNSLRAEDTAVYYCARHTWWKGAGFFDHWGQGTLVTVSS
VL: DIQMTQSPSSLSASVGDRVTITCRASQSIGRYLNWYQQKPGKAPKLLIYAASSLKSGVPSRFSGSGSGTDFTLTISSLQPEDFATYYCQQSYSLPRTFGQGTKVEIK
Take B14: in the assay with ACE2 [2], the koff is 0.0102 s⁻¹ and the kon is 80900 M⁻¹ s⁻¹. In the assay with ACE2 [3], this molecule showed a Kd of 126 nM, a koff of 0.0102 s⁻¹ and a kon of 80900 M⁻¹ s⁻¹.

B15: ACE2 variant antibody 3-9 (antibody, V domains shown)
VH: EVQLLESGGGLVQPGGSLRLSCAASGFTFRSYAMSWVRQAPGKGLEWVSSISGGGASTYYADSVKGRFTISRDNSKNTLYLQMNSLRAEDTAVYYCARVKYLTTSSGWPRPYFDNWGQGTLVTVSS
VL: DIQMTQSPSSLSASVGDRVTITCRASQSIGKYLNWYQQKPGKAPKLLIYASSTLQRGVPSRFSGSGSGTDFTLTISSLQPEDFATYYCQQSFSTPFTFGQGTKVEIK
In the assay with ACE2 [2], B15 gave a koff of 0.00569 s⁻¹ and a kon of 83600 M⁻¹ s⁻¹. In the assay with ACE2 [3], binding was characterised by a dissociation constant (Kd) of 68 nM, the koff was 0.00569 s⁻¹ and the kon amounted to 83600 M⁻¹ s⁻¹.

B16: ACE2 variant antibody 4-52 (VHH)
VHH: EVQLVESGGGLVQPGGSLRLSCAASGRSFSNSVMGWFRQAPGKEREFVARITWNGGSTYYADSVKGRFTISADNSKNTAYLQMNSLKPEDTAVYYCATTENPNPRWGQGTLVTVSS
In the assay with ACE2 [2], B16 displayed a koff of 0.00149 s⁻¹ and a kon of 126000 M⁻¹ s⁻¹. In the assay with ACE2 [3], this molecule returned a Kd of 11.8 nM, a koff of 0.00149 s⁻¹ and an on-rate constant (kon) of 126000 M⁻¹ s⁻¹.

B17: ACE2 variant antibody 4-39 (VHH)
VHH: EVQLVESGGGLVQPGGSLRLSCAASGRTFSNAAMGWFRQAPGKEREFVARILWTGASRNYADSVKGRFTISADNSKNTAYLQMNSLKPEDTAVYYCATTENPNPRWGQGTLVTVSS
Take B17: in the assay with ACE2 [2], the koff stood at 0.0137 s⁻¹ and the kon came to 136000 M⁻¹ s⁻¹. Also, in the assay with ACE2 [3], binding was characterised by a dissociation constant (Kd) of 101 nM, the koff worked out at 0.0137 s⁻¹ and the kon turned out to be 136000 M⁻¹ s⁻¹.

B18: ACE2 variant antibody 4-56 (VHH)
VHH: EVQLVESGGGLVQPGGSLRLSCAASGFSLDYYGMGWFRQAPGKERESVAAISWNGDFTAYADSVKGRFTISADNSKNTAYLQMNSLKPEDTAVYYCAKRANPTGAYFDYWGQGTLVTVSS
In the assay with ACE2 [2], B18 gave a dissociation rate constant (koff) of 0.00237 s⁻¹ and a kon of 130000 M⁻¹ s⁻¹. In the assay with ACE2 [3], this molecule displayed a Kd of 18.2 nM, a koff of 0.00237 s⁻¹ and a kon of 130000 M⁻¹ s⁻¹.

B19: ACE2 variant antibody 4-57 (VHH)
VHH: EVQLVESGGGLVQPGGSLRLSCAASGLTFRNYAMGWFRQAPGKEREFVAAIGSGGYTDYADSVKGRFTISADNSKNTAYLQMNSLKPEDTAVYYCAVKPGWVARDPSQYNWGQGTLVTVSS
For B19, in the assay with ACE2 [2], the koff is 0.00239 s⁻¹ and the kon was 307000 M⁻¹ s⁻¹. Besides, in the assay with ACE2 [3], the Kd came to 7.8 nM, the koff was 0.00239 s⁻¹ and the kon was found to be 307000 M⁻¹ s⁻¹.

B20: variant 6-63 (Fc fusion)
VHH: EVQLVESGGGLVQPGGSLRLSCAASGQTFNMGWFRQAPGKEREFVAAIGSGGSTSYADSVKGRFTISADNSKNTAYLQMNSLKPEDTAVYYCWRLGNDYFDYWGQGTLVTVSS
notes: also called VHH nanobody 6-63
In assay [1], B20 registered a Kd of 21.8 nM.

B21: variant 6-43 (Fc fusion)
VHH: EVQLVESGGGLVQPGGSLRLSCAASGRTFSSYAMMGWFRQAPGKEREFVASVNWDASQINYADSVKGRFTISADNSKNTAYLQMNSLKPEDTAVYYCTTLGAVYFDSSGYHDYFDYWGQGTLVTVSS
As for B21, binding in assay [1] was characterised by a dissociation constant (Kd) of 17.9 nM.

B22: variant 6-2 (Fc fusion)
VHH: EVQLVESGGGLVQPGGSLRLSCAASGFTMSSSWMGWFRQAPGKEREFVTVISGVGTSYADSVKGRFTISADNSKNTAYLQMNSLKPEDTAVYYCARGPDSSGYGFDYWGQGTLVTVSS
B22: the Kd in assay [1] amounted to 29.9 nM.

B23: variant 6-103 (Fc fusion)
VHH: EVQLVESGGGLVQPGGSLRLSCAASGRTSSPIAMGWFRQAPGKEREPVAVRWSDDYTYYADSVKGRFTISADNSKNTAYLQMNSLKPEDTAVYYCAKKLGGYYAFDIWGQGTLVTVSS
On to B23, for which, in assay [1], binding was put at a Kd of 23.6 nM.

B24: ACE2 variant antibody 4-25 (VHH)
VHH: EVQLVESGGGLVQPGGSLRLSCAASGGTFSRYAMGWFRQAPGKEREWVSAVDSGGSTYYADSVKGRFTISADNSKNTAYLQMNSLKPEDTAVYYCAASPSLRSAWQWGQGTLVTVSS
In the assay with ACE2 [2], B24 had a koff of 0.00303 s⁻¹ and a kon of 78700 M⁻¹ s⁻¹. In the assay with ACE2 [3], this molecule gave a Kd of 38.5 nM, a koff of 0.00303 s⁻¹ and a kon of 78700 M⁻¹ s⁻¹.
